In paper PMC3088709, “Phosphorylation of the Yeast γ-Tubulin Tub4 Regulates Microtubule Function” (PLoS ONE, 2011) one finds ratio to parent data, which are given here for 2 variants.

B1: Tub4 (yeast gamma-tubulin), wild type, untagged [S. cerevisiae] / Spc97-3HA [S. cerevisiae] (parent complex)
chain 1: MGGEIITLQAGQCGNHVGKFLWSQLAKEHAIGTDGLSQLPDSSTERDDDTKPFFRENSRNKFTPRAIMMDSEPSVIADVENTFRGFFDPRNTWVASDGASAGNSWANGYDIGTRNQDDILNKIDKEIDSTDNFEGFQLLHSVAGGTGSGLGSNLLEALCDRYPKKILTTYSVFPARSSEVVVQSYNTILALRRLIEDSDATVVFDNASLLNISGKVFRNPNIDLQHTNQLISTIISSVTNSIRFPSYMYSSMSSIYSTLIPSPELHFLSPSFTPFTSDYIHDDIAHKGHSSYDVMLDLLDPSNSLVSTAMNNPTYFNVYNTIIGNVEPRQISRAMTKLQQRIKFPSWSSSAMHVNIGRRSPYLPLQPNENEVSGMMLSNMSTVVNVFENACNTFDKVFAKGAFLNNYNVGDLFQSMQNVQDEFAESREVVQSLMEDYVAAEQDSYLDDVLVDDENMVGELEEDLDADGDHKLV
chain 2: MEIKEVDDRAELLRYTNNIPLLGKLVNHQPLWSTNPKLKSFSLEKISAPDQRRVQEALVVKDLLNVLIGLEGTYIRYFNDYEPSDPETPIEFKIAKKMDPSFKTFSRRIVRYGKQYMILTRAYEKWSDTSFGMVLQRFAYEIRRFLEDVYLKTLVERLERDFNKVPNFSIRELEQIINETEVNKQMELLYNIYEEIFREIEERRTNQSSQEDFNNFMDSMKNESSLHLRLMVAFDTTVYPVPKGGAILKIFQQKILENLGDRSSVMFLKKLLNNISQDYCTMLYEWLTQGILNDPYQEFMTYDDLEGKTDNIFDTRDRAWDTQYFIRKDVLLRDCDSEEDKNLLFKMLRTGILLKVVRASLQIPTIPSNSSDITIQEINDFADLMEGSNLELYVDKCYSRANEIFLKLFFQGYDLINVLKHLQQIFLGYQSGHNVLKFLTKNMGELTKHYRNDNNANYDKLLQNFELERQSENPNNLMRQLLMIQFDTETLPQVLSHYLQIYPEVPENNSANDDSDPLMHANNFKNMNAILFDELSKERTGAYHGSNLELYTPKSAIYHLKFDINIPYPLNIIISRTCMIKYQIILRYQLVLQYHSRLLDETWMDLNKTPSWKYRGYSHTVKRRIVRATRVLHAKMNHFIKTIMEYFNQNVIDKEVYSLEKCYRNPTLAVAIQNELEGGLTNIMTNRCLSDLIPLQLQIFDIVYKFCKFIKSMRAKLCQLDPVLYEKHKSGMMKTLNEGYRTNNGGQEDVGYQEDAALELIQKLIEYISNASSIFRKCLINFTQELSTEKFDFYDSSSVDAAGIERVLYSIVPPRSASASSQR

This assay covers variants of B1. The assay can be described thus: co-immunoprecipitation (anti-HA IP of Spc97-3HA), quantified immunoblot; TUB4-AID SPC97-3HA cells, IAA for 2 h at 30°C; normalized to precipitated Spc97-3HA; parent: 1; read off a plot. A general note: A western blot detects proteins with antibodies after separation by electrophoresis.
chain 1 S360D: the ratio to parent is roughly 0.41.
In the case of chain 1 S100E it was roughly 0.63.
